Holding throughout (assay): cell_activity
The subject of data set [1] is TALEN 103117 (synthetic). The settings on record: pair with 103118; K562, 400 ng.
Data set [2] concerns TALEN 103094 (synthetic). The following applies: pair with 103093; K562, 400 ng.
Data set [3] deals with TALEN 103090 (synthetic). The following applies: pair with 103089; K562, 400 ng.
In data set [4] the test system is TALEN 103099 (synthetic). The settings on record: pair with 103100; K562, 400 ng.
Data set [5] has as its system TALEN 103102 (synthetic). The settings on record: pair with 103101; K562, 400 ng.
Data set [6] deals with TALEN 103109 (synthetic). The following applies: pair with 103110; K562, 400 ng.
Data set [7] concerns TALEN 103107 (synthetic). The following applies: pair with 103108; K562, 400 ng.
Data set [8] relates to TALEN 103110 (synthetic). The settings on record: pair with 103109; K562, 400 ng.
The test system of data set [9] is TALEN 103108 (synthetic). The following applies: pair with 103107; K562, 400 ng.
Data set [10] relates to TALEN 103095 (synthetic). The settings on record: pair with 103096; K562, 400 ng.
The test system of data set [11] is TALEN 103111 (synthetic). The following applies: pair with 103112; K562, 400 ng.
Data set [12] concerns TALEN 103096 (synthetic). The settings on record: pair with 103095; K562, 400 ng.
Data set [13] relates to TALEN 103106 (synthetic). The settings on record: pair with 103105; K562, 400 ng.
The subject of data set [14] is TALEN 103097 (synthetic). The settings on record: pair with 103098; K562, 400 ng.
In data set [15] the test system is TALEN 103115 (synthetic). The following applies: pair with 103116; K562, 400 ng.
Data set [16] has as its system TALEN 103116 (synthetic). The following applies: pair with 103115; K562, 400 ng.
Data set [17] concerns TALEN 103112 (synthetic). The settings on record: pair with 103111; K562, 400 ng.
The subject of data set [18] is TALEN 103119 (synthetic). The settings on record: pair with 103120 (not in Table 2B); K562, 400 ng.
The test system of data set [19] is TALEN 103104 (synthetic). The settings on record: pair with 103103; K562, 400 ng.
Data set [20] concerns TALEN 103086 (synthetic). The following applies: pair with 103085; K562, 400 ng.
For data set [21], the system named is TALEN 103085 (synthetic). The settings on record: pair with 103086; K562, 400 ng.
The test system of data set [22] is TALEN 103092 (synthetic). The following applies: pair with 103091; K562, 400 ng.
Data set [23] deals with TALEN 103084 (synthetic). The settings on record: pair with 103083; K562, 400 ng.
Data set [24] concerns TALEN 103098 (synthetic). The settings on record: pair with 103097; K562, 400 ng.
For data set [25], the system named is TALEN 103103 (synthetic). The settings on record: pair with 103104; K562, 400 ng.
The test system of data set [26] is TALEN 103100 (synthetic). The following applies: pair with 103099; K562, 400 ng.
Data set [27] has as its system TALEN 103093 (synthetic). The settings on record: pair with 103094; K562, 400 ng.
In data set [28] the test system is TALEN 103088 (synthetic). The following applies: pair with 103087; K562, 400 ng.
Data set [29] has as its system TALEN 103105 (synthetic). The settings on record: pair with 103106; K562, 400 ng.
Data set [30] concerns TALEN 103101 (synthetic). The following applies: pair with 103102; K562, 400 ng.
In data set [31] the test system is TALEN 103087 (synthetic). The following applies: pair with 103088; K562, 400 ng.
In data set [32] the test system is TALEN 103113 (synthetic). The settings on record: pair with 103114; K562, 400 ng.
Data set [33] relates to TALEN 103114 (synthetic). The following applies: pair with 103113; K562, 400 ng.
The test system of data set [34] is TALEN 103091 (synthetic). The settings on record: pair with 103092; K562, 400 ng.
The subject of data set [35] is TALEN 103118 (synthetic). The following applies: pair with 103117; K562, 400 ng.
Data set [36] has as its system TALEN 103089 (synthetic). The following applies: pair with 103090; K562, 400 ng.

As to “GTGTGAACCATGTGACTTTGT (double strand) [TALEN 103117 site]”, the activity in [1] turned out to be 45.7 % indel.

As for “CTTGCTGAAAGACAAGTCTGA (double strand) [TALEN 103094 site]”, the activity in data set [2] is 20.2 % indel.

As for “ATGCTCCACTTTTTCAATTCT (double strand) [TALEN 103090 site]”, the activity in [3] is 16.1 % indel.

“CTTTCAGCAAGGACTGGTCTT (double strand) [TALEN 103099 site]” came in with an activity in data set [4] of 15.3 % indel.

In the case of “TTTTTCAGTGGGGGTGAATTC (double strand) [TALEN 103102 site]”, in [5], the activity turned out to be 15.5 % indel.

Regarding “ATTCACCCCCACTGAAAAAGA (double strand) [TALEN 103107/103109 site]”, the results for the activity in data set [6] and in data set [7] were 8 % indel and 4.2 % indel, respectively.

With “GTCACATGGTTCACACGGCAG (double strand) [TALEN 103108/103110 site]”, the activity in data set [8] was found to be 8 % indel; in [9], 4.2 % indel.

In data set [10], “TTCAGACTTGTCTTTCAGCAA (double strand) [TALEN 103095 site]” came in with an activity of 42 % indel.

For “CTGAAAAAGATGAGTATGCCT (double strand) [TALEN 103111 site]”, the activity in data set [11] was determined as 26.5 % indel.

“GTGTAGTACAAGAGATAGAAA (double strand) [TALEN 103096 site]”: the activity in data set [12] turned out to be 42 % indel.

The sequence “TTCACACGGCAGGCATACTCA (double strand) [TALEN 103106 site]” gave an activity in [13] of 14.2 % indel.

“CTTGTCTTTCAGCAAGGACTG (double strand) [TALEN 103097 site]” had an activity in data set [14] of 52 % indel.

With “GTATGCCTGCCGTGTGAACCA (double strand) [TALEN 103115 site]”, the activity in [15] is 66.1 % indel.

For the sequence “TTAACTATCTTGGGCTGTGAC (double strand) [TALEN 103116 site]”, the activity in [16] stood at 66.1 % indel.

In the case of “CTGTGACAAAGTCACATGGTT (double strand) [TALEN 103112 site]”, the activity in data set [17] is 26.5 % indel.

In [18], “ATGTGACTTTGTCACAGCCCA (double strand) [TALEN 103119 site]” registered an activity of 57.7 % indel.

In [19], “ATACTCATCTTTTTCAGTGGG (double strand) [TALEN 103104 site]” yielded an activity of 44.9 % indel.

“TTCAATTCTCTCTCCATTCTT (double strand) [TALEN 103086 site]” showed an activity in data set [20] of 3.9 % indel.

Turning to “ATCCATCCGACATTGAAGTTG (double strand) [TALEN 103085 site]”, in data set [21], the activity turned out to be 3.9 % indel.

The sequence “GTCTGAATGCTCCACTTTTTC (double strand) [TALEN 103092 site]” yielded an activity in [22] of 48.5 % indel.

The sequence “TTCTCTCTCCATTCTTCAGTA (double strand) [TALEN 103084 site]” yielded an activity in [23] of 32.2 % indel.

For the sequence “ATTCAGTGTAGTACAAGAGAT (double strand) [TALEN 103098 site]”, the activity in data set [24] turned out to be 52 % indel.

In [25], “CTATCTCTTGTACTACACTGA (double strand) [TALEN 103103 site]” showed an activity of 44.9 % indel.

In turn, “GTGAATTCAGTGTAGTACAAG (double strand) [TALEN 103100 site]” came in with an activity in data set [26] of 15.3 % indel.

For the sequence “ATGGAGAGAGAATTGAAAAAG (double strand) [TALEN 103093 site]”, the activity in data set [27] was 20.2 % indel.

In data set [28], “CTTTTTCAATTCTCTCTCCAT (double strand) [TALEN 103088 site]” came in with an activity of 10.5 % indel.

Take “CTACACTGAATTCACCCCCAC (double strand) [TALEN 103105 site]”: the activity in data set [29] came out at 14.2 % indel.

In [30], “CTGGTCTTTCTATCTCTTGTA (double strand) [TALEN 103101 site]” showed an activity of 15.5 % indel.

In data set [31], “ATCCGACATTGAAGTTGACTT (double strand) [TALEN 103087 site]” came in with an activity of 10.5 % indel.

In the case of “ATGAGTATGCCTGCCGTGTGA (double strand) [TALEN 103113 site]”, in data set [32], the activity stood at 26.6 % indel.

Regarding “CTATCTTGGGCTGTGACAAAG (double strand) [TALEN 103114 site]”, the activity in data set [33] is 26.6 % indel.

Sequence “GTTGACTTACTGAAGAATGGA (double strand) [TALEN 103091 site]” gave an activity in data set [34] of 48.5 % indel.

Turning to “TTACCCCACTTAACTATCTTG (double strand) [TALEN 103118 site]”, the activity in data set [35] came to 45.7 % indel.

The sequence “TTGAAGTTGACTTACTGAAGA (double strand) [TALEN 103089 site]” registered an activity in [36] of 16.1 % indel.

These data come from patent publication US20220175839.
